The target of test [1] is T1, GFP-THAP1 fusion protein (pEGFP.C2-THAP1) (human, UniProt Q5RCE4 1-213 (Pongo abelii entry)).
T1 construct: Expressed in transfected primary human endothelial cells (HUVEC); not shown: Enhanced Green Fluorescent Protein (EGFP) of pEGFP.C2 (Clontech), N-terminal
T1 sequence: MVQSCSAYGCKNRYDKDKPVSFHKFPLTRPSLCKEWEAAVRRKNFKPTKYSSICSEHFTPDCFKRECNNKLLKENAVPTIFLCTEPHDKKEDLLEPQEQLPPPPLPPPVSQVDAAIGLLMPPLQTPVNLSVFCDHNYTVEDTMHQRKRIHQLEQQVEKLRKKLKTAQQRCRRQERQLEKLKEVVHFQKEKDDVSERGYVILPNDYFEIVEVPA
The experiment in a line: in vivo interaction assay: co-transfection in primary human endothelial cells, confocal microscopy. The text has this: To provide further evidence for a physiological interaction between THAP1 and Par4 in vivo interactions between THAP1 and PAR4 were investigated. For that purpose, confocal immunofluorescence microscopy was used to analyze the subcellular localization of epitope-tagged Par4DD in primary human endothelial cells transiently cotransfected with pEF-mycPar4DD eukaryotic expression vector and GFP or GFP-THAP1 expression vectors (pEGFP.C2 and pEGFP.C2-THAP1, respectively). To generate pEF-mycPar4DD, mycPar4DD (amino acids 250-342) was amplified by PCR using pGBKT7-Par4DD as template, with primers myc.BD7 (5′-[…]-3′) (SEQ ID NO: 195) and Par4.9 (5′-[…]-3′) (SEQ ID NO: 196), and cloned into the XbaI and NotI sites of the pEF-BOS expression vector (Mizushima and Nagata, Nucleic Acids Research, 18:5322, 1990). Primary human endothelial cells from umbilical vein (HUVEC, PromoCell, Heidelberg, Germany) were grown in complete ECGM medium (PromoCell, Heidelberg, Germany), plated on coverslips and transiently transfected in RPMI medium using GeneJammer transfection reagent according to manufacturer instructions (Stratagene, La Jolla, Calif., USA). […] Cells were then washed three times 5 min at room temperature in PBS-BSA, and incubated for 1 hr with Cy3 (red fluorescence)-conjugated goat anti-mouse (1/1000, Amersham Pharmacia Biotech) secondary antibodies, diluted in PBS-BSA. […]

Test [2] addresses T2, human THAP1 (THanatos-Associated Protein-1), full length (human, UniProt Q9NVV9 1-213).
T2 construct: Used as Gal4-BD (pGBKT7) or Gal4-AD (pGADT7, pGAD424) fusion in yeast two-hybrid and as 35S-labelled in vitro translated protein (template pGBKT7-THAP1); also called hTHAP1; THAP1 wild type
T2 sequence: T1 sequence
The experiment in a line: yeast two-hybrid with THAP1 bait and GST pull-down with GST-THAP1.

For test [3], the target named is T2, human THAP1 (THanatos-Associated …). Briefly: yeast two-hybrid, AH109, His/Ade selection. The text has this: 285) and CXCL10-2 (5′-[…]-3′) (SEQ ID NO. 286), No. 2403734 (IFNγ) with primers IFN-1 (5′-[…]-3′) (SEQ ID NO: 287) and IFN-2 (5′-[…]-3′) (SEQ ID NO: 288). The PCR products were digested with EcoRI and BamHI, and cloned between EcoRI and BamHI cloning sites of vector pGBKT7 (Clontech).

B1: myc-Par4DD (epitope-tagged Par4DD, amino acids 250-342, pEF-mycPar4DD) (other, not shown: small tags and cut ends)
chain: GFPRYNRDANVSGTLVSSSTLEKKIEDLEKEVVTERQENLRLVRLMQDKEEMIGKLKEEIDLLNRDLDDIEDENEQLKQENKTLLKVVGQLTR
notes: Expressed in transfected primary human endothelial cells (HUVEC)
Turning to B1, in test [1], the binding result is reported as “binds”.

B2: SLC/CCL21ΔCOOH (SLC/CCL21 deletion mutant lacking the basic carboxy-terminal extension, amino acids 102-134) (ligand)
chain: SDGGAQDCCLKYSQRKIPAKVVRSYRKQEPSLGCSIPAILFLPRKRSQAELCADPKELWVQQLMQHLDKTPSPQKPAQG
notes: The BamHI-PstI fragment is said to encode SLC amino acids 24-102
On to B2, for which the binding result in test [2] is recorded as “binds”.

B3: human chemokine CXCL9, mature form (amino acids 23-125) (ligand)
chain: TPVVRKGRCSCISTNQGTIHLQSLKDLKQFAPSPSCEKIEIIATLKNGVQTCLNPDSADVKELIKKWEKQVSQKKKQKNGKKHQKKKVLKVRKSQRSRQKKTT
notes: Gal4 fusion in yeast or in vitro translated (pGBKT7 or pGADT7 template); tags not built in; also called MIG/CXCL9; MIG
For the molecule B3, the binding result in test [3] was “binds”.

(Values after US20060275295A1 (published 2006).)
